Results taken from FireProtDB (doi:10.1021/bi00210a045).

Conditions: Escherichia coli (strain K12), Thermal, DSC, reversible: yes, whole UniProt chain shown
[1] = pH 2.5, 25 °C, glycine or acetate 5 mM or 10 mM
[2] = pH 10.3, 25 °C, glycine or CAPS 5 mM or 10 mM
[3] = pH 10.3, Sodium glycinate 50 mM

B1: Chemotaxis protein CheY wild type, P0AE67 (protein)
chain: MADKELKFLVVDDFSTMRRIVRNLLKELGFNNVEEAEDGVDALNKLQAGGYGFVISDWNMPNMDGLELLKTIRADGAMSALPVLMVTAEAKKENIIAAAQAGASGYVVKPFTAATLEEKLNKIFEKLGM
For B1, the “heat capacity change of unfolding” value [1] was 0.89 kcal/mol/K, the unfolding free energy [1] was 2.89 kcal/mol and the Tm (pH 7, Sodium phosphate 50 mM) was 58 °C. For the same protein, the “heat capacity change of unfolding” value (pH 7, Sodium phosphate 50 mM) was 0.69 kcal/mol/K, the “unfolding enthalpy (calorimetric)” value (pH 7, Sodium phosphate 50 mM) was 83.7 kcal/mol and the “heat capacity change of unfolding” value [2] was 0.84 kcal/mol/K. For the same protein, the unfolding free energy [2] was 4.9 kcal/mol, the Tm [3] was 55 °C and the “heat capacity change of unfolding” value [3] was 0.84 kcal/mol/K. For the same protein, the “unfolding enthalpy (calorimetric)” value [3] was 67 kcal/mol.
